Assay results published in the supplement of paper PMC10126150.
± gives the standard deviation of the averaged measurements.

System: ATP
Test: switch fluorescence ratio, 500 uM ATP over buffer (Cy3 cluster intensity, sum of 5 cycles each) (fold (ratio)); higher = stronger signal-on switching upon ATP binding; sequences stand for … in TCGTCGGCAGCGTCAGATGTGTATAAGAGACAGTTTTTTTTTTTTTTTTTTTTTTTTT…TC
Details: aptamer strand: ATP DNA aptamer (quencher-CACCTGGGGGAGTATTGCGGAGGAAGG + anchor), 100 nM annealed; ATP concentration: 500 uM
Procedure, shortened: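 Switching-strand clusters labelled with Cy3 on a modified Illumina MiSeq flow-cell were annealed to 100 nM quencher-labelled ATP aptamer, imaged in selection buffer, and re-imaged after 15 min with 500 uM ATP at 22 °C. This was done over five cycles with NaOH stripping and re-annealing in between. The fluorescence ratio is summed target-cycle over summed buffer-cycle Cy3 intensity per cluster, averaged per switch-domain sequence, excluding clusters outside 100-1000 RFU.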
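Also: ATP exposure 15 min at 22 °C before imaging.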

| Sequence | switch fluorescence ratio |
| --- | --- |
| TTAGGGGTTT | 0.997 ± 0.041 |
| ATAGCGAGGA | 1.05 ± 0.034 |
| GCGAAGGTCT | 1 ± 0.014 |
| GATGGGAGGA | 0.9639 ± 0.005 |
| CGTGTAGGGA | 1.06 ± 0.029 |
| TCTCGCCGGG | 1.02 ± 0.031 |
| GGGGGCAATT | 0.987 ± 0.021 |
| GGTCGAAGGC | 0.9859 ± 0.0069 |
| AAACAGTTGG | 0.9936 ± 0.0097 |
| GTTTTTGGAG | 0.98219 ± 0.00097 |
| AAGGCGGCAT | 1 ± 0.044 |
| AGTATTTGAG | 0.975 ± 0.023 |
| CGCTTCGGTT | 0.963 ± 0.032 |
| GGGATTGTT | 0.996 ± 0.033 |
| GCACATCTGT | 0.99 ± 0.056 |
| TATAATTTAC | 1.06 ± 0.017 |
| CGCCTTTACA | 1.02 ± 0.029 |
| AAAAGGTGCG | 0.993 ± 0.013 |
| CCATAGAGAA | 1.02 ± 0.043 |
| AGGGGATTTT | 1.04 ± 0.056 |
| TTTATGGCGG | 1.01 ± 0.027 |
| TTGAGTTTTA | 1.01 ± 0.021 |
| CTGGTTAGGA | 1 ± 0.066 |
| TGGGAGAAAG | 0.999 ± 0.024 |
| TTGGGGGAAA | 1 ± 0.02 |
| ATGAGTCATT | 0.987 ± 0.026 |

| Sequence | switch fluorescence ratio |
| --- | --- |
| AAATTGATGG | 1 ± 0.084 |
| TTTGGAGGGC | 1.06 ± 0.065 |
| GGCCAGCGGA | 1.01 ± 0.024 |
| TATTGAGGGA | 1.017 ± 0.0031 |
| GCTTGGAAGC | 0.9909 ± 0.0089 |
| GCTGCTTGCG | 1 ± 0.014 |
| TATTTTTCTT | 0.975 ± 0.041 |
| CCCAGGAGTT | 1.94 ± 0.16 |
| TCGGGTATTT | 0.998 ± 0.021 |
| CGGTATAAGT | 0.9949 ± 0.0042 |
| ATGTGGATGC | 0.98 ± 0.045 |
| AGTTTTAGAT | 1 ± 0.044 |
| AGGGTTTTGG | 0.999 ± 0.03 |
| GGCACCACCT | 1.157 ± 0.0082 |
| CTATTTCTAC | 1.03 ± 0.046 |
| TACAGGGGTA | 1.05 ± 0.012 |
| AGATGTTTCC | 1.04 ± 0.055 |
| AATGTGTTGT | 0.998 ± 0.011 |
| AAATCGCGGA | 1.05 ± 0.011 |
| TGATAGGGTG | 1.03 ± 0.053 |
| TTTTCCGGTT | 1.23 ± 0.42 |
| GATAGGTTGG | 0.985 ± 0.066 |
| TGAAGCTTTA | 1.06 ± 0.048 |
| TGAGATGGTC | 1.004 ± 0.01 |
| TATTGCGATT | 0.994 ± 0.018 |
| ATTGTGAACG | 1 ± 0.042 |

| Sequence | switch fluorescence ratio |
| --- | --- |
| CTCGCACGTT | 1.03 ± 0.032 |
| AACGTATGGG | 1.03 ± 0.039 |
| TTTCTGGGGA | 0.991 ± 0.034 |
| AAGGCGGCGG | 0.991 ± 0.034 |
| ATAGACGTTA | 1.07 ± 0.049 |
| ACAACGGGTG | 2.1 ± 0.24 |
| TACTTTTATA | 1.03 ± 0.017 |
| AGAATTGTGG | 0.9728 ± 0.0027 |
| AGATGTGTAG | 1.04 ± 0.012 |
| GGGGTTACGG | 0.996 ± 0.062 |
| TGGGGTTGGT | 0.993 ± 0.018 |
| TGAAATATTC | 0.993 ± 0.019 |
| ACTGCCGTAT | 1.01 ± 0.036 |
| ATGACAGGAT | 1 ± 0.023 |
| TTTAGGGGAA | 1.02 ± 0.003 |
| TCTTTATATT | 1.02 ± 0.048 |
| CTCGGCCGGC | 0.982 ± 0.049 |
| ATCCGTGATA | 1.77 ± 0.021 |
| GCCATACGCG | 1.03 ± 0.016 |
| AGGGGCAAGA | 1.04 ± 0.032 |
| AGGAATACTT | 1.07 ± 0.043 |
| ATAGAGGCAC | 1.09 ± 0.099 |
| CGTGGTGGAG | 1 ± 0.045 |
| GAAATTCGGG | 0.978 ± 0.025 |
| ATAATAGAGT | 1.02 ± 0.024 |
| GTGGGTGTGT | 1.02 ± 0.045 |

| Sequence | switch fluorescence ratio |
| --- | --- |
| GGCTACTTTA | 1.07 ± 0.039 |
| TGGGGGGATA | 0.994 ± 0.045 |
| TTTAAATTTG | 1.018 ± 0.0054 |
| TTATATTTAT | 1.03 ± 0.069 |
| TGCTGGTTTT | 1.01 ± 0.037 |
| TTTTTGCTGC | 0.999 ± 0.024 |
| GCCCGTATGG | 1 ± 0.019 |
| GGATCATCGC | 1.027 ± 0.0065 |
| GAAGTAATAG | 4.39 ± 0.18 |
| TTCTACGGGC | 1.11 ± 0.025 |
| TTACACCTTT | 1.02 ± 0.0085 |
| GGCGACTAAA | 1.07 ± 0.057 |
| TATCTTAGGC | 1.01 ± 0.027 |
| AAAGAAGGGC | 0.938 ± 0.05 |
| GGGGGACAGA | 0.969 ± 0.013 |
| TAGAGTTGTT | 0.984 ± 0.03 |
| GTAAAATGTT | 1.03 ± 0.035 |
| GGGGGATGCT | 0.975 ± 0.039 |
| TCCCTAACAC | 1.12 ± 0.023 |
| ATGGGTCTCT | 0.997 ± 0.017 |
| TGAGATCCCT | 1.03 ± 0.039 |
| TACATTGGCT | 0.982 ± 0.019 |
| ATTGATCTCC | 1.03 ± 0.072 |
| AGGCATTAAT | 1.01 ± 0.018 |
| ACGTTAAATG | 1.13 ± 0.053 |
| TTGTAAGATC | 1.02 ± 0.029 |

| Sequence | switch fluorescence ratio |
| --- | --- |
| CGTCATGGCT | 0.957 ± 0.041 |
| GGGGTAGTCG | 0.988 ± 0.012 |
| GAAATCAGCA | 1.03 ± 0.023 |
| AACTGGGGAT | 0.9809 ± 0.0018 |
| TCGTTAGAAG | 0.9966 ± 0.0052 |
| GTTGGGCCGA | 1.03 ± 0.038 |
| CCCGGGTAGT | 1.12 ± 0.12 |
| TTTCGGTTGC | 1.07 ± 0.11 |
| CCATAAGGGA | 1.028 ± 0.0055 |
| TCGGGGTAAT | 1.03 ± 0.019 |
| TCATTGGGAC | 1.06 ± 0.028 |
| TCCGTGGGTG | 1.38 ± 0.21 |
| AGATGTATTT | 0.997 ± 0.032 |
| GCTATTGGGA | 1.01 ± 0.022 |
| TTTCTCTGAT | 0.9813 ± 0.0042 |
| GCCAGAGGGG | 1.19 ± 0.34 |
| TTAGGATTTT | 1.01 ± 0.011 |
| TTGGGTGGCA | 1.03 ± 0.039 |
| TTTGCAAACT | 0.994 ± 0.017 |
| TAGGGGCTTT | 1.04 ± 0.062 |
| TGACTAGGGG | 0.949 ± 0.1 |
| AGTTGAGAG | 1.03 ± 0.017 |
| TTTTGCGGCG | 1.25 ± 0.29 |
| TCTCGGGGGG | 1.02 ± 0.065 |
| TTTGTTGTAG | 0.985 ± 0.028 |
| CGTGGGTTGT | 0.9956 ± 0.0018 |

| Sequence | switch fluorescence ratio |
| --- | --- |
| GAGGTAGATG | 0.991 ± 0.0012 |
| GAGTCAGC | 1.08 ± 0.14 |
| GAGGGGAGGC | 1.29 ± 0.39 |
| CTGAAAGAGT | 0.976 ± 0.026 |
| TGAGGGTTGC | 1.01 ± 0.018 |
| CTGAGGGCTG | 1.03 ± 0.028 |
| GGGTGGATAG | 0.971 ± 0.018 |
| ACTAAAAGGT | 1.01 ± 0.012 |
| AATGGGGGCA | 1.007 ± 0.0076 |
| TTTTTTTTGT | 1 ± 0.035 |
| TTATACGCTT | 1.1 ± 0.017 |
| TTTATGAAGG | 1 ± 0.018 |
| GTGGTGTAAT | 0.992 ± 0.0023 |
| CCCATCCCCG | 1.2 ± 0.084 |
| TCTATGTTAT | 0.999 ± 0.027 |
| AACGTTAATT | 1.025 ± 0.0081 |
| TGACGTACCC | 1.7 ± 0.05 |
| TTCCGGGGTA | 1.02 ± 0.032 |
| TAAGCTTACA | 1.04 ± 0.032 |
| CATGGTTGGG | 0.984 ± 0.037 |
| TTACATGGTA | 0.977 ± 0.0024 |
| AGGTAGGGCA | 0.9762 ± 0.0049 |
| GGGAAAGCGC | 1.03 ± 0.064 |
